The record followed here is patent US20230102344A1 (published 2023).

The term EC50 denotes the concentration at which the effect is half-maximal.

Experiment [1] addresses T1, TCRvβ 6-5 expressed on cells (TCRvβ 6-5+ Jurkat cells; human T cells) (human).
T1 chain: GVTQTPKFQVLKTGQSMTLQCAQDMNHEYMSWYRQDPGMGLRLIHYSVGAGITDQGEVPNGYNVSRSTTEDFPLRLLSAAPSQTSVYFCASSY
Description: FACS cell binding.

In experiment [2] the target is CD33 expressed on cells (MOLM-13, MV411, HL60) (human, UniProt P20138 18-364). In words: cell binding.
CD33 expressed on cells (MOLM-13, MV411, HL60), sequence (P20138 18-364): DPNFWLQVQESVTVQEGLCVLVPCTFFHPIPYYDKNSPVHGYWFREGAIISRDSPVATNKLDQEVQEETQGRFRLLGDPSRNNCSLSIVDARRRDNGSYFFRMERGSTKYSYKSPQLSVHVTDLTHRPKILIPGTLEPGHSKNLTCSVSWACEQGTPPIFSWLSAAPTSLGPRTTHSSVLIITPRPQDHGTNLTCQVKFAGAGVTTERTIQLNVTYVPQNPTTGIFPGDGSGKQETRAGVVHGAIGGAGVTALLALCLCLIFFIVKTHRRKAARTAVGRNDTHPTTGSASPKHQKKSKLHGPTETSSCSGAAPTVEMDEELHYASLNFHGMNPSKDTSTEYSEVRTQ
The target in experiment [3] is T1, TCRvβ 6-5 expressed on cells (TCRvβ …). In words: cell binding.

B1: BJM0387 (bispecific antibody)
heavy: QVQLVQSGAEVKKPGSSVKVSCKASGYSFTTYYIHWVRQAPGQGLEWMGWFFPGSGNIKYNEKFKGRVTITADTSTSTAYMELSSLRSEDTAVYYCAGSYYSYDVLDYWGQGTTVTVSSGGGGSGGGGSGGGGSGGGGSDIQMTQSPSFLSASVGDRVTITCKASQNVGINVVWHQQKPGKAPKALIYSSSHRYSGVPSRFSGSGSGTEFTLTISSLQPEDFATYFCQQFKSYPLTFGQGTKLEIKGGGGSQVQLVQSGAEVKKPGSSVKVSCKASGYTFTDYNMHWVRQAPGQGLEWIGYIYPYNGGTGYNQKFKSKATITADESTNTAYMELSSLRSEDTAVYYCARGRPAMDYWGQGTLVTVSS
light: DIQMTQSPSSLSASVGDRVTITCRASESVDNYGISFMNWFQQKPGKAPKLLIYAASNQGSGVPSRFSGSGSGTDFTLTISSLQPDDFATYYCQQSKEVPWTFGQGTKVEIK
For the molecule B1, the EC50 in experiment [1] came to 0.908 nM; in experiment [2] it was 0.13 nM; in experiment [3], 0.91 nM.
